B1: 87 (protein)
chain: LKKGNGDFIKKNGVFFQIDRDMNEPPYSVINVFYTESLLDDNLLNQLEKERKMGKYKTQNYFRKSLDNNKYFMEYSRKQKEQLEFLLE
modifications: bait human Fc-tagged dimer
B2: 33 (protein)
chain: SSNDKNKINKNNMPLQRGASNLKDINIHNVEKKSNMESVNNNINNAACSKNLNANKVPNVAHTGVNKKGETKNEEVEKEENENEEIEKEEIENEENQQNEEDENEENQQNEEDENEENQQMNVNVDVSAEKKNKELPEEKKELQKNSEKNINKEVIKDSNKDNTFNFHKNINTAFNKNKNIYNNNNNNNNNNKAFIEKKEEAIDMKKTHCSNNNKMCKYNNMNNHMSTNKNNNQIFEESKQNVNKPIYNLKSLGNNAFKNDEKYNENDYKNNHDDDKKKYTDDSNEENIYEERNQKILLIHLLKNIKELLNRQRQNFNNFLSFLSENYQSYEKFYKSQKYQNGKNYIDKLDQQGELKNVAVVTHSFLDMSKAANGKKDKNGVFVKLMNDQNDDGDDTKDGDDTKDEDDHKNEDDHKNEDDHKNEDDHKNEDDHKNGDDNKNGDDHKNGDDNKNGDDDNGKKSHDISDIKNIIDTILQSDDITDEQKKYLEIIKKILDLEEDVLNKEKEQLQLNKNIIEVLMGKSDELRNIAVNLKNGNGDNEASQRVDLAQNIVSNLLNFAVQLKNTGNIVYNNIQGQGELLQSIEKNIDKAENDLKKSTSVNTAFTPKNVPNTEQNDQETQTDDDINDADIDENNNANDKNNCHMYKKNNCHMYKKNNCKKYFLNSHYNNYLCKKQKKYNKNDMGNKQKDNKKFKLNEAMKNHFYNIFVKETVMLKKLYKVLFELF
modifications: bait human Fc-tagged dimer
B3: 45 (protein)
chain: GEEKLTKFDPVMIKEGELFGEVSYDCEYSGFLEIENDDILYYCFFVGEDDHNGLLLRKFHMDDMVWGIPMEVLITRKKINLYILTVDYILSKLILIYSFDEKIRITVFNNYMEESVMSEKISINYEILYKANMISYITYFYKNKKSLCVCGMNRNENILCTFSFDYGLTMKDDHTIEFFLKKKIPLGHYKMQVTFKETEVYFNLYNDLNEANFYELKCVKKQDEYICDIMNKIRETQEYNYKRYTYPSSEHNKYYNDHHNKQPQGKQGQQGGAPLPNLGEEENNFIYKHIVRNKYFQMIVFQKDQKCYLAWSFNSLNINDEITKEISSVPCSNVASYYRQERLIVTLKKNQLGSRNHFFLIYEKLTEKGVGCEFGVGGSLYVTKTFMNNACDMDINNMNVATTNYDEINFALIIPLSFQLNYATCFIWEENVDNNEERSSLYYLEEYTNEKEDIKVYTFYFYKYILIYKNFKKSTCTFESKNNEKLYISFRGDTYYKEYNCNILLDSCDFFLHTQSKINIAYDDDVWQVSEELYDGFVMYNGAYVSLYDVLSRSNAHGLIYIDGKENNAAINLNNIKNNNNNNNNNNNNNNAANNNNIANNANSNNAFGEHEKVITIIIPYGIPSTRTIKIEFLNKQNNEEKRWAYLRLQKNEYIMKKVIGINSADIFDLSYKYYKYNQEKIKFILNDFSETTYLGFICQTKEEIKKSLCTISLVDHSHKNMAINNLFKTNNHILPFLYDQSPPRKIQPYNQIISEFRFVLFKNFHLFLQENKINYILLKCMCSSSSSYINTQKNIELSYLITNEQVSHDFIHTPGILIRPRTNIAHNDYQKNNKGNHKGNNKANNKANDKDSNNNANNNANKNGNNHNDNNNNNQNKDIDINSNYAIHNNNEKVKRTKKKINDAPYDKQDEELPSYDFNDLLHEKKNGASVFDFNFVLFLFICITFF
modifications: bait human Fc-tagged dimer
B4: 34 (protein)
chain: TKKKVSVSEINFDSAVDDVQWCGNNHMTVLVKTVKGRLYRSSDGGKIWTNIAGNLADKENNKADPSSNHMNEMTTVDLIMVNSVNKNIVLIIGNQKNHYISEDSGETFRLLNYQNKINFWQFHSTKTHWALVSSWTEACYSNDDNSGECMQTLSLTKDLGRTFQLIDIYVVQFNWGDKESHLEDTIYYTRHKNRNGHQQRFSGWSKDVDFVATHNFGKSVDVLVKQGNKFLISNGYIFVAKLNDVIKQTVNMMVSTDGGKTFNKANLPENIHEKSYTVLDTSEGSIMLHVNHGTSSEKINTGNVYISDASGLNYALSLPNNIRTSSGECEFDRVLSLDGVYIANFLDVNNEIKDEDLRFQNFKSAIEEDIAPFETNTEKRKKQYNKGKNEDAVRTVISFNKGGEWSYLKAPKVDSRGNKYECGDNCYLHLHGITNYHQYAPFYSIENAVGIIMGTGNVGSHLRYESDEVNTFLSRDGGVTWIEAHKGPYIYEYGDYGGLIVMADDLRKTNQIVFSWNEGQSWFDFELGQFSIDVDNIVAEPNSASVEFLVYGTRNDVGVLYHLDFNALGQPLCKGLWAADSVSSDYETWSPTSGNFNDKCILGRKITYTRRKQTSECFNGKDLKRTVDKKPCECTPEDYECETGFTRKIGSYECKPNDPTLTIEGCTSSSYFYANAYRKVPGDICVNGWVPEKVPVPCPSYAPFNKAAK
modifications: bait human Fc-tagged dimer
B5: 50 (protein)
chain: ANAFYVDNGQEMLIKEKEHYSSDSEHHKEESASIGNLNVFFPAENYHFSTYMGFDRRSFLPSNEIELEKMIGANFANEVKNYCSRQNVAQKIGDYLNIAFEYSRALEELRSEMILDFNKRKHLTNNADDTILHMIENAEKRKNDPNYKEAYENKDYANNANIFMNEYSNPLSTKYNKILKEYLCHLFVNNPGTKPLERLYYNSLALGELVEPIRNKFKSLASSTIDFNYEIHMASASNIYLLAHFLVLSLAYLSYNEYFTTGTKSFYSLPTILTANSDNSFFMLNEMCNIHYNPNKNFKKDITFIPIESRPKRTTTFYGERRLTCDLLELVLNAIMLININEINNVFSNNNVDGYENSLSFSHNAIRIFSKVCPKINNDNVLKCEFEESSLYNPKIIKNDASEKSSQKNLKKAFDLLRTYAEIEGHSAEGSTSPYYVSLILDDMKYNDFYKYTLWYEPRELIYGDIRGMQMKKKKKTKYIYNDFMKKSTQLKKKLIKNDLKYNLKSKGLVFLYAMIDKYGSILNKAQKAKVQFLNSASSIRYYLYLNKVIFKSAKTYLDIMKRVLEELQTSTNTPLKFLVRGNYIENINNIARNDNMFYANLFVLTALSRRDPVKDYYNDKRKMLSATLAEKFANSASMLIPHKLRKLVVSMKKGLLKKKLLTSLAKVKLLQHIPAHMLENIASSIRFTTHTIATMQIIQNAKYMSKHNFAQYDSKGMLARQIFTKGGFAEYADNLMAKWFSKGFEEYKREQIENFKMENSIDSELKDSEREDENDASEESAKKKLQDLQLEEREKMKKENSLLFNQADKWDQFINKELVRALGLWLEFNDNPANAASFVYKVVEDSKHLLENNIDNNIIFSRTVKPTKQTAFRRFFNKILSLGNMLLRKPSFRVEHALWFGATIDIKKAFILLEKVSELHKMLNNQDESWLINEAFIEIVDHVVDLSTYKHVREPFGVARNPGMMAINPKYAELSHENRLRELQNSMCADHCSSVWKVISSFALHHLKNPDSLHTYESKFSKNSFGNKIDDKDFVHNFKMILGGDAVLHYFDNLLPKTMKKDLKAMKYGVSLTSAYSLKLTKIIFSQMQLPYLSQMFYMQAPYFGHFIGKWQKKRQQSRLKEIMSFMTLGSLSAYTLFSAMDITQQAKDIGAGPVASCFTTRMSPPQQICLNSVVNAALSTSTQSAMKCVFSV
modifications: bait human Fc-tagged dimer
B6: 75 (protein)
chain: NVVAPKSAEAVHTLTAKLDTENKAHQKYIDIINGVFSENMENFVFSITTSNGFTCSINKLDVIFDNKVTGMQKVFSDENVQYIKEASLEFKNNLLEYMKGVMPSENDFSNVRKEFQKVCVKYFSELRRKFFQIYRDPNNKNQNEDNVDNHMNIEEISQEFFSGFNPFGTMKIRKEQNPDLSQKDSLILNENNNDALTSADQKNNNMVPMENRAFSYSQQSSHVVSFDGHDEHVEQQEQHSGDNTQEDKDQLMDLPFNKDKVFSTFLKNVALLIEGNCAEAQQQAQEQTQEQTEEQEEEQNEKEIESDKQVQKDGEQKENDVQKKQKANAFTIQFSSSLSRKHISTTCNAASGNVFLRKGNKPFEHFNSPNFENMMKGVFGIIQNPFENGQPTFPFFKNINSISGIGNVDIPKNFMNDFLNNGNDQNTPISS
modifications: bait human Fc-tagged dimer
B7: 80 (protein)
chain: INPATLIQNHLYMYQTNNAINEENIYNMKKFSKLPIAENTRNIRHSTNDLYYEHSLNLEKPNEHFTLHNIKLICQQIYHNQPNQLNLRILAVLLSTSYKQENIANIFQNLCNNGLSCLFTIQLSKNKAFVDQNKIVHLKIIDTDDLKRNKNNNIRHKITVYYICEDLKYKNQKQQESNEFKYVFNYEQLAFLKCENYLTVQVEKLVGINYNKEFHNLNPEYISFYCSQRVICNTHIEDLYKEDDKKRKNYIFYELTYRCVPPKVCSFCGNNAACKLEKLYNKEKEITQFYNNVEYNDAGVFDRLLLNKEEEEERNKASFVANLEYNAINYDIDDMITVGSNTYHILEICKCSKDYVQEGSSCVKKEKDKIYIRYAKK
modifications: bait human Fc-tagged dimer
B8: 72 (protein)
chain: SNHIKSVNRCFIPFISEYIYKQKNRKNNIAYDSSNSHYNDKIIPCGNYNKQLKYKINFCRNLYFNNKNEYNRICSRNKLNFHNIQTDNTIYKPKKKYYEVGKVREKIKMYTLFKDDKINTLKCNEEESVTSETINKHDSSVKVKGRRKKNIASNENIMNPNNKAVSSINTNLADSSNNKNDNSLNSKKNDNTLNSKKNDNTLNSKKNDNTLNSKNNNNALNSKNNNNALNSKKSNNAYNDKHIDHIIPEGKNKINNNIDVKHNINNKLNEINEEPYEDTHNKEENSANKNDNDEKRKEENNNIARRYIKNDQMSYNNINTNSNEYDKNAATLDETYIGKTFEGYVYSVNKNAACIKLKNINKYGLLFKNKANLGDDIEDMNDFFEKDQPVHVKILGINTKKNIFYLGNIIKYNENIKLSKGEYSKGLITKVCDSYCFIKVLKNGATGYLHKSKLFCMNDKEKKNNDNQNYDNPNNDNPNYDNQNYDNQNYNNPNYDHPNYDNQNYDNQNYNNPNNDYSTSQLYNSDNLQMDFIYKLQFTKIFNIWDIIDVEILGTPQNDYKSNYILTIPRGSKTFKKILNYLNVLKENEDINNIQYKGDYIYSIDNNKNDNIIDSDINNHHINNKKKKKNLYDIQNNMNHAPFNKFHTEDEYLFNDHVQENVHTFYEKNKKYKITYDKENNHKMNKAYYLKKNKELPFNNKFKKIIKNIYDLPNTISLSMLSKTIKIPLASIKKYFIIHENKEYNSAYKINSEQIKRICQHFKIDCNVEQRDDNVVTKVNGATKDCQEKVFKNVAQDRLKEGEQERVIKVEAKIKNDEMVMQEQKDTKEEKHMDVQFIEEKDINVQHINVQDMDVQDMDVQDINVQDMDVQNINVQDINIQDMDVQNINNAITLNKATSCQTDESRDAPGGDQNEALDEKDSMEKSKEKKKKKGKSRKKNKDTNLALKSDSIQKSKTTLDDKKRNVVVTFIGHINHGKTSLFDYICKTNEQKKEYGLITQNIRAFKATVRNNFAFTLVDTPGHEAFMPMRSRGVKISDLSILVISGDEGIQEQTVECIKLIKEFNIKIIIAITKVDIPNVDVDRIINDLLYHDITTELNGGEIQVVECSIYKEESIDKLLDAIYLESEFLNLQTNPDKKHEQAQGVVLDSYIDKNGIVSINLLQNGVLNINDHFYTGSSYGKVKILKDHLNKNIKSAYPSDPIKIIGYNKNSVPVAGDKFYVVENEALAKEIAEHNKNKMLTMEINNFAYDQTNMNRYKDFIISRENKIGGSSGILGENNLKNDIDGNMARDDNMARDDNMASDDNMARDGNRANNDNIASDDNMANDYDKIKETKMYTNNKAFQKDDFLKIHLNNANENVINMDPSTHIGKNEIKTIYSNYIIKCDKQGSIEVLKNCMLKLQKEDSICKIKNKIIYADIGNVASSDIKYATSFNAAIIAFGVKLSNDIKGSKNSKGSKNHNNYPIIYSNVLYELIENVEKEMEKKLSKKPMGELKGTAQILKVFNIAKLGKVAGCIVKKGTISINSNIRILRNDKVIYMGKIISIKIVKEEKTQVTEADECGIGFDNFLDFEPNDIIEAYEN
modifications: bait human Fc-tagged dimer

Target: FGFR4 ectodomain (Homo sapiens, UniProt P22455)
Test: AVEXIS normalised luminescence

| Binder | binding score |
| --- | --- |
| B1 | 1.61 |
| B2 | 1.23 |
| B3 | 1.05 |
| B4 | 0.648 |
| B5 | 1.17 |
| B6 | 1.05 |
| B7 | 1.04 |
| B8 | 1.02 |
